In patent US20240209086A1 (PETMEDIX, published 2024):

T1: canine CD20 on cells (HEK293, MDCK II, CLBL-1 or native B cells) (canine, UniProt Q3C2E2 1-297)
T1 chain: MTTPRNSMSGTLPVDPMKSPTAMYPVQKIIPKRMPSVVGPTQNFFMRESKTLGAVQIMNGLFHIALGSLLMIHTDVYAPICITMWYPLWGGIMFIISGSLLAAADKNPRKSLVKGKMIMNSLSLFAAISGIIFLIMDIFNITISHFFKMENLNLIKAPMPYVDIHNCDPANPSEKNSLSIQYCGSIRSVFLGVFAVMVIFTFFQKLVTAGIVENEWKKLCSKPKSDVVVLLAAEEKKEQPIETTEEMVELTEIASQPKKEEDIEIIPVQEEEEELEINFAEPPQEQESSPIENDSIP


How the values were obtained:
[1] = molecular target: T1, canine CD20 on cells (HEK293, MDCK II, …); experiment: cell-based or functional assay
[2] = molecular target: T2, canine CD3εδ-Fc (heterodimer of canine CD3ε-hIgG4PE-knob and canine CD3δ-hIgG4PE-hole) (canine); experiment: SPR (Biacore 8K), CD3εδ-Fc amine-coupled to CM5 chip, multi-cycle kinetics, antibody 600-7.4 nM
T2 construct: also called CD3εδ-Fc fusion protein; copies: 1 + 1
Method: Binding affinity of shortlisted candidates, described in Example 3, were assessed using Biacore 8K (Cytiva). Briefly, a CM5 Sensor Chip (Cytiva) was docked onto a Biacore 8K, equilibrated for 30′ at RT and then Running Buffer (10 mM HEPES pH6 150 mM NaCl 3 mM EDTA and 0.005% Tween20) was applied to the SPR chip surface. Canine CD3εδ-Fc was diluted into 10 mM acetate buffer pH4.5 and immobilised using standard amine coupling reaction. Antibodies dilutions were prepared by diluting the shortlisted candidates from 600 nM to 7.4 nM (5 concentrations with 1:3 dilutions) in running buffer and kinetics was assessed using multi-cycle kinetics method (120 sec association-300 sec dissociation). Kinetics and/or Affinity quantification was performed using Biacore Insight following standard analyses methods.

[3] = molecular target: canine CD3 on canine T cells (canine PBMC) (canine, UniProt P27597 22-202); experiment: cell-based or functional assay
canine CD3 on canine T cells (canine PBMC), sequence (P27597 22-202 limits assumed, chain 1 of 3): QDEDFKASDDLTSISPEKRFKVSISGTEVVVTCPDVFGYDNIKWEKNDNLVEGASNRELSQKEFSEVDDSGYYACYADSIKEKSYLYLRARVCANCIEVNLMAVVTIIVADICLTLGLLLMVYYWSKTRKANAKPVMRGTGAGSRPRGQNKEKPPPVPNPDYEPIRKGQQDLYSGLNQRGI
canine CD3 on canine T cells (canine PBMC), sequence (chain, as listed by the source limits assumed, chain 2 of 3): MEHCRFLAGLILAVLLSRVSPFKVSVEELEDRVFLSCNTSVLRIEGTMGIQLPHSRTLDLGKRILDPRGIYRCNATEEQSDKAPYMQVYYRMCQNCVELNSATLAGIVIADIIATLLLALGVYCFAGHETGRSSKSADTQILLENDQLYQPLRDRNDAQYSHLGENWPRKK
canine CD3 on canine T cells (canine PBMC), sequence (chain, as listed by the source limits assumed, chain 3 of 3): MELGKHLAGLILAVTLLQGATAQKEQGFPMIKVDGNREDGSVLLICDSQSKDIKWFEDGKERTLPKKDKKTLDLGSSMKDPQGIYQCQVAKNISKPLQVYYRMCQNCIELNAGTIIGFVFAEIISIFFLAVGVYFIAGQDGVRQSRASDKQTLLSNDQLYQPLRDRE

T2 sequence (chain, as listed by the source mutant limits assumed): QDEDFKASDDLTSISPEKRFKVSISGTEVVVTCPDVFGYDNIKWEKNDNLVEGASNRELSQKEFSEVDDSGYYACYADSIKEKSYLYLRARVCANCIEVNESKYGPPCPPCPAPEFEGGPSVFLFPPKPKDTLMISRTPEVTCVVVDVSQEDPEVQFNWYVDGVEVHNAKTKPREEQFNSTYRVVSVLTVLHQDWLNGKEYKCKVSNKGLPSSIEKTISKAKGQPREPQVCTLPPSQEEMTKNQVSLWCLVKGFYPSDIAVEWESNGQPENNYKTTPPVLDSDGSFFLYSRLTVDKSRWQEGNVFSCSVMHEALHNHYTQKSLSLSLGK

Row | Kd [2] | Binder | EC50 (nM), bispecific killing (FIG. 15) [1] | EC50 (M) of killing potency, bispecific killing of hCD20+GFP MDCK II cells by canine PBMC [3]
1 | – | PMX172VH/PMX234VH/PMX172VL (bispecific antibody, V domains shown) VH 1: EVQLVESGGDLVKPGGSLRLSCVASGFTFSSYHMSWVRQAPGKGLQWVAYSNSGGSRTSYADAVKGRFTISRDNAKNTLYLQMNSLRAEDTAVYYCASEGGGGRYGYKDYGMDYWGHGTSLFVSS VH 2: ELQLVESGGDLVKPGGSLRLSCVASGFTFSRYYLNWVRQAPGKGLQWVAFITSGGSSTNYADAVKGRFTISRDNAKNTLYLQMNSLRAEDTAVYYCTSFDSWGQGTLVTVSS VL: SYVLTQLPSKNVTLKQPAHITCGGDNIGSKSVHWYQQKLGQAPVLIIYYDSSRPTGIPERFSGANSGNTATLTISGALAEDEADYYCQVWDSSAKAWVFGEGTQLTVL | 0.412 nM | –
2 | – | PMX172VH/PMX229VH/PMX172VL (bispecific antibody, V domains shown) VH 1: EVQLVESGGDLVKPGGSLRLSCVASGFTFSSYHMSWVRQAPGKGLQWVAYSNSGGSRTSYADAVKGRFTISRDNAKNTLYLQMNSLRAEDTAVYYCASEGGGGRYGYKDYGMDYWGHGTSLFVSS VH 2: EVQLVESGGDLVKPGGSLRLSCVASGITFSRYHMSWVRQAPGKGLQWVAFINTGRSSTNYADAVAGRFTISRDNAKNTLYLQMNGLTVEDTAVYYCSTLDYWGQGTLVTVSS VL: SYVLTQLPSKNVTLKQPAHITCGGDNIGSKSVHWYQQKLGQAPVLIIYYDSSRPTGIPERFSGANSGNTATLTISGALAEDEADYYCQVWDSSAKAWVFGEGTQLTVL | 1.02 nM | –
3 | – | PMX172VH/PMX240VH/PMX172VL (bispecific antibody, V domains shown) VH 1: EVQLVESGGDLVKPGGSLRLSCVASGFTFSSYHMSWVRQAPGKGLQWVAYSNSGGSRTSYADAVKGRFTISRDNAKNTLYLQMNSLRAEDTAVYYCASEGGGGRYGYKDYGMDYWGHGTSLFVSS VH 2: EVQLVESGGDLVKPGGSLRLSCVASGLTFSRYHMSWVRQAPGKGLQWVAFINSGRSDTTYADAVKGRFTISRDNAKNTLYLQMNSLRAEDTAVYYCTTFDYWGQGTLVTVSS VL: SYVLTQLPSKNVTLKQPAHITCGGDNIGSKSVHWYQQKLGQAPVLIIYYDSSRPTGIPERFSGANSGNTATLTISGALAEDEADYYCQVWDSSAKAWVFGEGTQLTVL | 0.341 nM | –
4 | – | PMX172VH/PMX235VH/PMX172VL (bispecific antibody, V domains shown) VH 1: EVQLVESGGDLVKPGGSLRLSCVASGFTFSSYHMSWVRQAPGKGLQWVAYSNSGGSRTSYADAVKGRFTISRDNAKNTLYLQMNSLRAEDTAVYYCASEGGGGRYGYKDYGMDYWGHGTSLFVSS VH 2: EVQLVESGGDLVKPGGSLRLSCVASGITFSRYYMNWVRQAPGKGLQWVAYINTGESSTIYSDAVKGRFTISRDNAKNTLYLQMNSLRAEDTAVYYCTTLEYWGQGTLVTVSS VL: SYVLTQLPSKNVTLKQPAHITCGGDNIGSKSVHWYQQKLGQAPVLIIYYDSSRPTGIPERFSGANSGNTATLTISGALAEDEADYYCQVWDSSAKAWVFGEGTQLTVL | 0.445 nM | –
5 | 99.8 nM | PMX184 in bispecific format (canine CD3 arm PMX184 x Rituximab arm, human IgG4PE knob-in-hole) (bispecific antibody) heavy 1: ELTLQESGPGLVKPSQTLSLTCGVSGGSVTRSHYWNWVRQRPGRGLEWMGYWTGSTNYNPAFQGRISITADTAKNQFSLQLRSMTTEDTAVYFCARETTIPTFFFDYWGQGTLVTVSSASTKGPSVFPLAPCSRSTSESTAALGCLVKDYFPEPVTVSWNSGALTSGVHTFPAVLQSSGLYSLSSVVTVPSSSLGTKTYTCNVDHKPSNTKVDKRVESKYGPPCPPCPAPEFEGGPSVFLFPPKPKDTLMISRTPEVTCVVVDVSQEDPEVQFNWYVDGVEVHNAKTKPREEQFNSTYRVVSVLTVLHQDWLNGKEYKCKVSNKGLPSSIEKTISKAKGQPREPQVYTLPPSQCEMTKNQVSLSCAVKGFYPSDIAVEWESNGQPENNYKTTPPVLDSDGSFFLVSRLTVDKSRWQEGNVFSCSVMHEALHNRFTQKSLSLSLGK light 1: SYVLTQLPSKNVTLKQPAHITCGGDNIGSKSVHWYQQKLGQAPVLIIYYDSSRPTGIPERFSGANSGNTATLTISGALAEDEADYYCQVWDSGAKAWVFGEGTQLTVLRTVAAPSVFIFPPSDEQLKSGTASVVCLLNNFYPREAKVQWKVDNALQSGNSQESVTEQDSKDSTYSLSSTLTLSKADYEKHKVYACEVTHQGLSSPVTKSFNRGEC heavy 2: not shown light 2: QIVLSQSPAILSASPGEKVTMTCRASSSVSYIHWFQQKPGSSPKPWIYATSNLASGVPVRFSGSGSGTSYSLTISRVEAEDAATYYCQQWTSNPPTFGGGTKLEIKRTVAAPSVFIFPPSDEQLKSGTASVVCLLNNFYPREAKVQWKVDNALQSGNSQESVTEQDSKDSTYSLSSTLTLSKADYEKHKVYACEVTHQGLSSPVTKSFNRGEC | – | 2.55e-08 M
6 | 72.1 nM | PMX185 in bispecific format (canine CD3 arm PMX185 x Rituximab arm, human IgG4PE knob-in-hole) (bispecific antibody) heavy 1: EVQLVESGGDLVKPGGSLRLSCVASGFTFSSYHMSWVRQAPGKGLQWVASINSGGSRTSYVDAVKGRFTISRDNAKKTLYLQMNSLRAEDTAVYYCASGRTGPKLGLGDYGMDSWGHGTSLFVSSASTKGPSVFPLAPCSRSTSESTAALGCLVKDYFPEPVTVSWNSGALTSGVHTFPAVLQSSGLYSLSSVVTVPSSSLGTKTYTCNVDHKPSNTKVDKRVESKYGPPCPPCPAPEFEGGPSVFLFPPKPKDTLMISRTPEVTCVVVDVSQEDPEVQFNWYVDGVEVHNAKTKPREEQFNSTYRVVSVLTVLHQDWLNGKEYKCKVSNKGLPSSIEKTISKAKGQPREPQVYTLPPSQCEMTKNQVSLSCAVKGFYPSDIAVEWESNGQPENNYKTTPPVLDSDGSFFLVSRLTVDKSRWQEGNVFSCSVMHEALHNRFTQKSLSLSLGK light 1: SYVLTQLPSKNVTLKQPAHITCGGDNIGSKSVHWYQQKLGQAPVMIIYYDSSRPTGIPERFSGANSGNTATLTISGALAEDEADYYCQVWDSSAKAWVFGEGTQLTVLRTVAAPSVFIFPPSDEQLKSGTASVVCLLNNFYPREAKVQWKVDNALQSGNSQESVTEQDSKDSTYSLSSTLTLSKADYEKHKVYACEVTHQGLSSPVTKSFNRGEC heavy 2: not shown light 2: QIVLSQSPAILSASPGEKVTMTCRASSSVSYIHWFQQKPGSSPKPWIYATSNLASGVPVRFSGSGSGTSYSLTISRVEAEDAATYYCQQWTSNPPTFGGGTKLEIKRTVAAPSVFIFPPSDEQLKSGTASVVCLLNNFYPREAKVQWKVDNALQSGNSQESVTEQDSKDSTYSLSSTLTLSKADYEKHKVYACEVTHQGLSSPVTKSFNRGEC | – | 4.79e-09 M
7 | 106 nM | PMX187 in bispecific format (canine CD3 arm PMX187 x Rituximab arm, human IgG4PE knob-in-hole) (bispecific antibody) heavy 1: EVQLVESGGDLVKPGGSLRLSCVASGFTFSSYHMSWVRQAPGKGLQWVASINSGGSRTSYVDAVKGRFTISRDNAKNTLYLQMNSLRAEDTAVYYCASGRTGPKLGLGDYGMDSWGHGTSLFVSSASTKGPSVFPLAPCSRSTSESTAALGCLVKDYFPEPVTVSWNSGALTSGVHTFPAVLQSSGLYSLSSVVTVPSSSLGTKTYTCNVDHKPSNTKVDKRVESKYGPPCPPCPAPEFEGGPSVFLFPPKPKDTLMISRTPEVTCVVVDVSQEDPEVQFNWYVDGVEVHNAKTKPREEQFNSTYRVVSVLTVLHQDWLNGKEYKCKVSNKGLPSSIEKTISKAKGQPREPQVYTLPPSQCEMTKNQVSLSCAVKGFYPSDIAVEWESNGQPENNYKTTPPVLDSDGSFFLVSRLTVDKSRWQEGNVFSCSVMHEALHNRFTQKSLSLSLGK light 1: SYVLTQLPSKNVTLKQPAHITCGGDNIGSKSVHWYQQKLGQAPVLIIYYDSSRPTGIPERFSGANSGNTATLTISGALAEDEADYYCQVWDSSAKAWVFGAGTQLTVLRTVAAPSVFIFPPSDEQLKSGTASVVCLLNNFYPREAKVQWKVDNALQSGNSQESVTEQDSKDSTYSLSSTLTLSKADYEKHKVYACEVTHQGLSSPVTKSFNRGEC heavy 2: not shown light 2: QIVLSQSPAILSASPGEKVTMTCRASSSVSYIHWFQQKPGSSPKPWIYATSNLASGVPVRFSGSGSGTSYSLTISRVEAEDAATYYCQQWTSNPPTFGGGTKLEIKRTVAAPSVFIFPPSDEQLKSGTASVVCLLNNFYPREAKVQWKVDNALQSGNSQESVTEQDSKDSTYSLSSTLTLSKADYEKHKVYACEVTHQGLSSPVTKSFNRGEC | – | 1.14e-08 M
8 | 292 nM | PMX188 in bispecific format (canine CD3 arm PMX188 x Rituximab arm, human IgG4PE knob-in-hole) (bispecific antibody) heavy 1: EVQLVESGGDLVKPGGSLRLSCVASGFTFSSYHMSWVRQAPGKGLQWVASINSGGSRTSYVDAVKGRFTISRDNAKKTLYLQMNSLRAEDTAVYYCASGRTGPKLGLGDYGMDSWGHGTSLFVSSASTKGPSVFPLAPCSRSTSESTAALGCLVKDYFPEPVTVSWNSGALTSGVHTFPAVLQSSGLYSLSSVVTVPSSSLGTKTYTCNVDHKPSNTKVDKRVESKYGPPCPPCPAPEFEGGPSVFLFPPKPKDTLMISRTPEVTCVVVDVSQEDPEVQFNWYVDGVEVHNAKTKPREEQFNSTYRVVSVLTVLHQDWLNGKEYKCKVSNKGLPSSIEKTISKAKGQPREPQVYTLPPSQCEMTKNQVSLSCAVKGFYPSDIAVEWESNGQPENNYKTTPPVLDSDGSFFLVSRLTVDKSRWQEGNVFSCSVMHEALHNRFTQKSLSLSLGK light 1: SYVLTQLPSKNVTLKQPAHITCGGDNIGSKSVHWYQQKLGQAPILIIYYDSSRPTGIPERFSGANSGNTATLTISGALAEDEADYYCQVWDSSAKAWVFGEGTQLTVLRTVAAPSVFIFPPSDEQLKSGTASVVCLLNNFYPREAKVQWKVDNALQSGNSQESVTEQDSKDSTYSLSSTLTLSKADYEKHKVYACEVTHQGLSSPVTKSFNRGEC heavy 2: not shown light 2: QIVLSQSPAILSASPGEKVTMTCRASSSVSYIHWFQQKPGSSPKPWIYATSNLASGVPVRFSGSGSGTSYSLTISRVEAEDAATYYCQQWTSNPPTFGGGTKLEIKRTVAAPSVFIFPPSDEQLKSGTASVVCLLNNFYPREAKVQWKVDNALQSGNSQESVTEQDSKDSTYSLSSTLTLSKADYEKHKVYACEVTHQGLSSPVTKSFNRGEC | – | 8.23e-09 M
